Consider 31 variants from the supplement of paper PMC7125110.

First the molecules themselves.
B1: glmS ribozyme (parent)
chain: AUAAAAGCGCCAGAACUACAGAAAUGUAGUUGACGAGGAGGAGGUUUAUCGAAUUUUCGGCGGAUGCCUCCAAA

Common to all, as to settings: with glucosamine-6-phosphate
The variants in series [1] derive from B1. Put plainly: self-cleavage kobs at 640 uM GlcN6P; higher = faster cleavage; RNA array. In outline:
(§1)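 Barcoded ribozyme variants were transcribed in situ on sequenced MiSeq chips by E. coli RNA polymerase. At 37 °C, a hybridised Cy3 probe tracked them while glucosamine-6-phosphate (40 μM to 10 mM) in HEPES/KCl/Mg(OAc)2 buffer flowed in and tiles were imaged over ~14 h. Per-tile medians of signals normalised to baseline and to non-cleaving reference variants were fit to one- or two-exponential decays, giving kobs. kcat and KM came from weighted Michaelis–Menten fits across concentrations.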

Series [2] covers variants of B1. The experiment in a line: self-cleavage kobs at 2500 uM GlcN6P; higher = faster cleavage; RNA array. In outline:
as §1

Variants of B1 are the subject of series [3]. The experiment in a line: self-cleavage kobs at 10000 uM GlcN6P; higher = faster cleavage; RNA array. The gist of the method: as §1

± gives the standard error. This sample holds only a part of the variants without activity.

For the variant C11A U31C A42C, the “self-cleavage kobs at 640 uM GlcN6P” value with glucosamine-6-phosphate [1] is less than 1e-05 s⁻¹.

Consider G35U G38U G41C, for which, in the series with glucosamine-6-phosphate [1], the “self-cleavage kobs at 640 uM GlcN6P” value was less than 1e-05 s⁻¹. Also, the “self-cleavage kobs at 2500 uM GlcN6P” value with glucosamine-6-phosphate [2] was less than 1e-05 s⁻¹.

With C8A C50G C61A U69G, in the series with glucosamine-6-phosphate [1], the “self-cleavage kobs at 640 uM GlcN6P” value was found to be 7.27e-05 ± 2.2e-05 s⁻¹. Besides, the “self-cleavage kobs at 2500 uM GlcN6P” value in the series with glucosamine-6-phosphate [2] is 6.55e-05 ± 2.7e-05 s⁻¹.

As to U47A G66U C68A, the “self-cleavage kobs at 640 uM GlcN6P” value with glucosamine-6-phosphate [1] came out at 0.00243 ± 0.00077 s⁻¹. Further, the “self-cleavage kobs at 2500 uM GlcN6P” value in the series with glucosamine-6-phosphate [2] was found to be 5.79e-05 ± 1.7e-05 s⁻¹.

With U31C A36C U45G U65G C71U, the “self-cleavage kobs at 640 uM GlcN6P” value with glucosamine-6-phosphate [1] was less than 1e-05 s⁻¹. For the same variant, the “self-cleavage kobs at 2500 uM GlcN6P” value with glucosamine-6-phosphate [2] is less than 1e-05 s⁻¹.

With C11A G51U A53G A64C U69A, the “self-cleavage kobs at 640 uM GlcN6P” value with glucosamine-6-phosphate [1] is 8.76e-05 ± 3.9e-05 s⁻¹. Besides, the “self-cleavage kobs at 10000 uM GlcN6P” value in the series with glucosamine-6-phosphate [3] is 5.47e-05 ± 1.5e-05 s⁻¹.

As for G32C G35C U47C C58U, in the series with glucosamine-6-phosphate [1], the “self-cleavage kobs at 640 uM GlcN6P” value was less than 1e-05 s⁻¹.

Consider C10U C16G U31G A33C C70G, for which the “self-cleavage kobs at 640 uM GlcN6P” value with glucosamine-6-phosphate [1] was less than 1e-05 s⁻¹.

As for G7U C11A C50G C70U, the “self-cleavage kobs at 640 uM GlcN6P” value in the series with glucosamine-6-phosphate [1] was determined as 0.000451 ± 0.00011 s⁻¹. Moreover, the “self-cleavage kobs at 2500 uM GlcN6P” value with glucosamine-6-phosphate [2] worked out at 0.000157 ± 3.1e-05 s⁻¹. In the series with glucosamine-6-phosphate [3], the “self-cleavage kobs at 10000 uM GlcN6P” value is 0.00016 ± 3.1e-05 s⁻¹.

As for A12C C16G A42G G44C U45G U46A C61A G62C, in the series with glucosamine-6-phosphate [1], the “self-cleavage kobs at 640 uM GlcN6P” value is less than 1e-05 s⁻¹. For the same variant, in the series with glucosamine-6-phosphate [2], the “self-cleavage kobs at 2500 uM GlcN6P” value is less than 1e-05 s⁻¹.

Regarding U45G C70G, the “self-cleavage kobs at 640 uM GlcN6P” value with glucosamine-6-phosphate [1] worked out at 0.000176 ± 7.2e-05 s⁻¹. In the series with glucosamine-6-phosphate [2], the “self-cleavage kobs at 2500 uM GlcN6P” value was found to be 4.73e-05 ± 1.8e-05 s⁻¹. Further, the “self-cleavage kobs at 10000 uM GlcN6P” value with glucosamine-6-phosphate [3] was 0.000258 ± 6.7e-05 s⁻¹.

As to C10U C11G G29U U30G G37C, the “self-cleavage kobs at 640 uM GlcN6P” value with glucosamine-6-phosphate [1] was less than 1e-05 s⁻¹.

For the variant A12U C16A A53C, in the series with glucosamine-6-phosphate [1], the “self-cleavage kobs at 640 uM GlcN6P” value stood at 0.000148 ± 3.3e-05 s⁻¹. The “self-cleavage kobs at 2500 uM GlcN6P” value with glucosamine-6-phosphate [2] stood at 0.000358 ± 7.9e-05 s⁻¹.

In the case of C16U U47A G62U, in the series with glucosamine-6-phosphate [1], the “self-cleavage kobs at 640 uM GlcN6P” value is less than 1e-05 s⁻¹.

With A12U A48U C68A C70G, in the series with glucosamine-6-phosphate [1], the “self-cleavage kobs at 640 uM GlcN6P” value is less than 1e-05 s⁻¹.

Consider C8U A42U U49G A52G U57G, for which the “self-cleavage kobs at 640 uM GlcN6P” value in the series with glucosamine-6-phosphate [1] is less than 1e-05 s⁻¹. For the same variant, in the series with glucosamine-6-phosphate [2], the “self-cleavage kobs at 2500 uM GlcN6P” value was less than 1e-05 s⁻¹.

On to A15G G29C G38A U47C C71A, for which the “self-cleavage kobs at 640 uM GlcN6P” value with glucosamine-6-phosphate [1] is less than 1e-05 s⁻¹. Also, the “self-cleavage kobs at 2500 uM GlcN6P” value with glucosamine-6-phosphate [2] was less than 1e-05 s⁻¹.

For the variant U45G A52C U55C C70G, in the series with glucosamine-6-phosphate [1], the “self-cleavage kobs at 640 uM GlcN6P” value is less than 1e-05 s⁻¹. In the series with glucosamine-6-phosphate [2], the “self-cleavage kobs at 2500 uM GlcN6P” value was less than 1e-05 s⁻¹.

In the case of A6U G35A C70U, in the series with glucosamine-6-phosphate [1], the “self-cleavage kobs at 640 uM GlcN6P” value was less than 1e-05 s⁻¹.

Consider C34U G38U A42G, for which the “self-cleavage kobs at 640 uM GlcN6P” value with glucosamine-6-phosphate [1] is less than 1e-05 s⁻¹. Besides, the “self-cleavage kobs at 2500 uM GlcN6P” value in the series with glucosamine-6-phosphate [2] was less than 1e-05 s⁻¹.

For A33U G37A G59A, the “self-cleavage kobs at 640 uM GlcN6P” value in the series with glucosamine-6-phosphate [1] is less than 1e-05 s⁻¹.

For the variant G7U G13A A15C A36U G43A C67U, in the series with glucosamine-6-phosphate [1], the “self-cleavage kobs at 640 uM GlcN6P” value is less than 1e-05 s⁻¹. Also, the “self-cleavage kobs at 2500 uM GlcN6P” value with glucosamine-6-phosphate [2] was less than 1e-05 s⁻¹.

Turning to C8U G44A U45C, the “self-cleavage kobs at 640 uM GlcN6P” value with glucosamine-6-phosphate [1] was less than 1e-05 s⁻¹. For the same variant, the “self-cleavage kobs at 2500 uM GlcN6P” value with glucosamine-6-phosphate [2] was less than 1e-05 s⁻¹.

Take U31G C58G C70G: the “self-cleavage kobs at 640 uM GlcN6P” value with glucosamine-6-phosphate [1] was found to be 0.000104 ± 3.4e-05 s⁻¹.

For the variant G9U U47G C68A, in the series with glucosamine-6-phosphate [1], the “self-cleavage kobs at 640 uM GlcN6P” value is less than 1e-05 s⁻¹.

With A15G U45C C71U, the “self-cleavage kobs at 640 uM GlcN6P” value in the series with glucosamine-6-phosphate [1] worked out at 0.000376 ± 0.00017 s⁻¹. Also, the “self-cleavage kobs at 2500 uM GlcN6P” value in the series with glucosamine-6-phosphate [2] was determined as 0.000625 ± 0.0003 s⁻¹.

For A48U G59C C68G, in the series with glucosamine-6-phosphate [1], the “self-cleavage kobs at 640 uM GlcN6P” value is less than 1e-05 s⁻¹.

With A15G G44U A52C U69C, in the series with glucosamine-6-phosphate [1], the “self-cleavage kobs at 640 uM GlcN6P” value is less than 1e-05 s⁻¹.

In the case of C10G C11U U45G A48U C58U, the “self-cleavage kobs at 640 uM GlcN6P” value in the series with glucosamine-6-phosphate [1] was less than 1e-05 s⁻¹. Moreover, in the series with glucosamine-6-phosphate [2], the “self-cleavage kobs at 2500 uM GlcN6P” value was less than 1e-05 s⁻¹.

In the case of C11U A15U G38U G41U U57A, the “self-cleavage kobs at 640 uM GlcN6P” value in the series with glucosamine-6-phosphate [1] was less than 1e-05 s⁻¹. Further, in the series with glucosamine-6-phosphate [2], the “self-cleavage kobs at 2500 uM GlcN6P” value is less than 1e-05 s⁻¹.

Consider A15U U30A G32C U56C U57C C61G, for which the “self-cleavage kobs at 640 uM GlcN6P” value with glucosamine-6-phosphate [1] was less than 1e-05 s⁻¹. Also, the “self-cleavage kobs at 2500 uM GlcN6P” value in the series with glucosamine-6-phosphate [2] was less than 1e-05 s⁻¹.
